# According to the nanobody polyreactivity screen of Harvey et al. (2022):
# Experiment: yeast display, Sf9 membrane polyspecificity reagent, FACS + sequencing; frameworks hold sequencing errors
# How it was run: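 Sorting gates, low and high (top ~1%), were placed on anti-HA fluorescence to track expression and on streptavidin fluorescence to track reagent binding. A clone's polyreactivity label is taken from the gate it came out of. The reagent was 10% biotinylated, detergent-solubilized Sf9 membrane, applied for 1 hour at 4 °C to galactose-induced yeast display cells.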
row,Sequence,polyreactivity (PSR sort gate)
1,QVQLVESGGGLVQAGGSLRLSCAASGIIFLRNTMGWYRQAPGKERELVASISRRGGSTYYADSVKGRFTISRDNAKNTVYLQMNSLKPEDTAVYYCNKRSLEKGDYWGQGTQVTVTS,high polyreactivity
2,QVQLVESGGGLVQAGGSLRLSCAASGIIFLTHAMGWYRQAPGKERELVAAITAIGGSTYYADSVKGRFTLSRDNAMNTVYLLMISLKPEDTADYYCAADFSYVYYLYDFWGQGTKVTVSS,low polyreactivity
3,QVQLVESGGGLVQAGGSLRLSCAASGIIFNFNAMGWYSQAPGKERELVAGISYGGGRTYYADSVKGRFTISRDNAINTVYLQMNSLKPEDTAFYYCNKYGLGIYRGYYWGQGTQVTVSS,high polyreactivity
4,QVQLVESGGGLVQAGGSLRLSCAASGIIFNHYAMGWYGQAPGKERELVAAISRRGGSTYDADSVKGRFTISRDNAKNTVYLQMNSLKPEDTAVYYCNDRSFATGSKVPARGYWGQGTQVTVSS,high polyreactivity
5,QVQLVESGGGLVQAGGSLRLSCAASGIIFNRYAMGWYRQAPGKERELVAAITYSGDNTYYADSVKGRFTISRDNAKNTVYLQMNSLKPEDTAVYYCAAVSSRGGDYYWGQGTQVTVSS,high polyreactivity
6,QVQLVESGGGLVQAGGSLRLSCAASGIIFNSNAMGWYRQAPGKERELVAGISRGSSTSYADSVKGRFTISRDNAKNPVYLQMNSLKPADNAVYFCNAEVYSPQQFTPPDRYYYWGQGTQVTVSS,low polyreactivity
7,QVQLVESGGGLVQAGGSLRLSCAASGIIFNVNAMGWYRQAPGKERELVASINSGSTYYADSVKGRFTISRDNAKNTVYLQMNSLKPEDTAVYYCATGARSPPWGRSKKRTYYYWGQGTQVTVSS,high polyreactivity
8,QVQLVESGGGLVQAGGSLRLSCAASGIIFNYYTMGWYRQAPGKERELVAVITSRGSSPYYADSVKGRFTISRDNAKNTVNLQMNSLKPDDTAVYYCAKVRPYLDTNEYYYWGQGTQVTVSS,high polyreactivity
9,QVQLVESGGGLVQAGGSLRLSCAASGIIFPAYAMGWYRQARGKERELVAAITSRGGSTYYADSVKGRFTISRDNAKNTVYLQMNSLKPEDTAVYYCNAAALADYDYWGQGTQVTVSS,low polyreactivity
10,QVQLVESGGGLVQAGGSLRLSCAASGIIFPGKAMGWYRQAPGKERELVAAISSGGNTKYADSVKGRFTISRDNAKNTGYLQMNSLNPEDTAVYYCAAAARARNPSYGRNYWGQGTQVTVSS,high polyreactivity
11,QVQLVESGGGLVQAGGSLRLSCAASGIIFPQNAMGWSRQAPGKERELVAAISKSGGRTYYADSVKGRFTISRDNAKNTVYVQMNSLKPEDSAVYYCAKVPYAYSRDRSAEDSWGQGTQVTVSS,high polyreactivity
12,QVQLVESGGGLVQAGGSLRLSCAASGIIFPRYAMGWYRQAPGKERELVAAITRRGGRTYYADSVKGRFTISRDNAKNTVYLQMNSLKPEDTAVYYCNADFISPRPPKATDEDYWGQGTQVTVSS,high polyreactivity
13,QVQLVESGGGLVQAGGSLRLSCAASGIIFPSYDMGWYRQAPGKERELVAAINSGDSTYYADSVKGRFTISRDNAKNTVYLQMNSLKPEDTAVYYCAANPGDLGGWYVPYDYWGQGTQVTVSS,low polyreactivity
14,QVQLVESGGGLVQAGGSLRLSCAASGIIFPSYVMGWYRQAPGKERELVAVITWSGGSTYYADSVKGRFTISRDNAKNTVYLQMNSLKPEDTAVYYCARRRRWVHSFDYWGQGTQVTVSS,high polyreactivity
15,QVQLVESGGGLVQAGGSLRLSCAASGIIFPTYVMGWYRQAPGKERELVAVISWSGASTYYADSVKGRFTISRDNAKNSVYLQMNSLKPEDTAVYYCAADWWRVEMDYWGQGTQVTVSS,low polyreactivity
16,QVQLVESGGGLVQAGGSLRLSCAASGIIFPYYAMGWYRQAPGKERELVAAINSSGGSTFYAHSVKGRFTISRDNAKNTVYLQMNSLKPVVTAVYYCAAETLRYRWSLYYWGQGTQVTVSS,high polyreactivity
17,QVQLVESGGGLVQAGGSLRLSCAASGIIFPYYAMGWYRQAPGKERELVARITRRGGSTYYADSVKGRFTISRDNAKNTVYLQMNSLKPEDTAVYYCAAYAPYYRTMEYWGQGTQVTLSS,high polyreactivity
18,QVQLVESGGGLVQAGGSLRLSCAASGIIFQDNAMGWYRQAPGKERELVATIDRGGDTYYADSVKGRFTISRDNAKNTVYLQMNSLKPEDTAVYYCAAVEFELRGDYWGQGTQVTVSS,low polyreactivity
19,QVQLVESGGGLVQAGGSLRLSCAASGIIFQFYAMGWYRQAPGKERELVAAISRSGGITHYADSVKGRFTISRDNAKNTVYLQMNSLKPEDTAVYYCAAVRQAYPRLDYWGQGTQVTVSS,high polyreactivity
20,QVQLVESGGGLVQAGGSLRLSCAASGIIFQFYAMGWYRQAPGKERELVAAISRSGGITHYADSVKGRFTISRDNAKNTVYLQMNSLKPEDTAVYYCNAVQPARFVGGFGTGVDYWGQGTQVTVSS,high polyreactivity
21,QVQLVESGGGLVQAGGSLRLSCAASGIIFQHNAMGWYRQAPGKERELVAAISSNGGRTFYPDSVKGRFTISRDNAKNTVYLQMNSLKPEDTAVYYCNRQYPSRYGYWGQGTQVTVSS,high polyreactivity
22,QVQLVESGGGLVQAGGSLRLSCAASGIIFQLNAMGWYRQAPGKERELVAAISSVGSTYYADSVKGRFTISRDNAKNTVYLQMNSLKPEDTAVYYCAAETYSTAHNAYFEIAYYWGQGTQVTVSS,high polyreactivity

row,Sequence,polyreactivity (PSR sort gate)
1,QVQLVESGGGLVQAGGSLRLSCAASGIIFQQYAMGWYRQAPGKERELVAAITYSGDGTYYADSVKGRFTISRDNAKNTVYLQMNSLKPEDTAVYYCAAYPRDPYKEYDYWGQGTQVTVSS,low polyreactivity
2,QVQLVESGGGLVQAGGSLRLSCAASGIIFQRNDMGWYRQAPGKERELVASITSGGSTNYADSVKGRFTISRDNAKNTVYLQMNSLKPEDTAVYYCARVSVSDYDYWGQGTQVTVSS,low polyreactivity
3,QVQLVESGGGLVQAGGSLRLSCAASGIIFRANAMGWYRQAPGKERELVAAISSSGGSTFYADSVKGRFTISRDNAKNTVYLQMNSLKPEDTAVYFCAAGRSKFAWSEYEYWGQGTQVSVSS,low polyreactivity
4,QVQLVESGGGLVQAGGSLRLSCAASGIIFRDNAMGWYRQAPGKERELVAAIDSSGGTTYADSVKGRFTISRDNAKNTVYLQTHSLTPEDTAVYYCATEVYWTVSYYGYDYYGGNYYYWGQGTQVTVSS,low polyreactivity
5,QVQLVESGGGLVQAGGSLRLSCAASGIIFRFNGMGWYRQAPGKEREFVAAISGGAGSTYYADSVKGRFTISRDNAKNTVYLQMNSLKPEDTAVYYCAAVWRTRWASGYYWGQGTQVTVSS,high polyreactivity
6,QVQLVESGGGLVQAGGSLRLSCAASGIIFRFYAMGWYRQAPGKERELVARIRSRGGSTYYADSVKGRFTISRDNAKNTVYLQMNSLKPEDTAVYYCAAGAGYPYYWGQGTQVTVSS,high polyreactivity
7,QVQLVESGGGLVQAGGSLRLSCAASGIIFRGNAMGWYRQAPGKERELVAAISSGGSTYYADSVKGRFTISRDNAKNRVYLQMNSLKPEDTAVYYCNARWYYWGTLYGSWGHGTQVTVSS,high polyreactivity
8,QVQLVESGGGLVQAGGSLRLSCAASGIIFRGNAMGWYRQAPGKERELVAAMSKSGGRTYYADSVKGRFTISRDNAKNTVYLQMNSLKPEDTAVYYCAARRSTSYPAGNDYWGQGTQVTVSS,high polyreactivity
9,QVQLVESGGGLVQAGGSLRLSCAASGIIFRGYVMGWYRQAPGKERELVAAISTSGGRTSYADSVKGRFTISRDNAKNTVYLQMNSLKPEDTAVYYCAARPLYSYSQWGYGYWGQGTQVTVSS,high polyreactivity
10,QVQLVESGGGLVQAGGSLRLSCAASGIIFRLYAMGWYRQAPGKERELVAAISYRGGSTYYADSVKGRFTISRDNAKNTVYLQMNSLKPEDTAVYYCAGRNPRYSFYYWGQGTQVTVSS,high polyreactivity
11,QVQLVESGGGLVQAGGSLRLSCAASGIIFRLYGMGWYIQAPGKEREFVATITWRGGRTNYADSVKGRFTISRDNAKNTVYLQMNSLKPEDTAVYYCAAGSAPSYWGGWYYERDYWGQGTQVTVSS,low polyreactivity
12,QVQLVESGGGLVQAGGSLRLSCAASGIIFRNYAMGWYRQAPGKEREFVASITKRGGSTYYADSVKGRFTISRDNAKNTVYLQMNSLKPEDTAVYYCNTQWYRGRTEYGYWGQGTQVTVSS,high polyreactivity
13,QVQLVESGGGLVQAGGSLRLSCAASGIIFRNYAMGWYRQAPGKERELVAAISRNGGSTYYADSVKGRFTISRDNAKNTVYLQMNSLKPEDTAVYYCAAVSPGTVTNGKSRDYWGQGTQVSVSS,high polyreactivity
14,QVQLVESGGGLVQAGGSLRLSCAASGIIFRPYAMGWYRQAPGKERELVAAITGSGVSTYYADSVKGRFTISRDNAKNTVYLQMNSLKPEDTAVYYCAARYDVHYDGMDYWGQGTQVTVSS,low polyreactivity
15,QVQLVESGGGLVQAGGSLRLSCAASGIIFRPYAMGWYRQAPGKEREMVAAITWSGTSTYYADSVKGRFTISRDNAKNTVYLQMNSLKPEDTAVYYCAATWSYGVSWYEYWGQGTQVTVSS,high polyreactivity
16,QVQLVESGGGLVQAGGSLRLSCAASGIIFRRYAMGWYRQAPGKERELVAAISWSGGSTYYADSVKGRFTISRDNAKNTVYLQMNSLKPEDTAVYYCAAAAYTRDEYDYWGQGTQVTVSS,high polyreactivity
17,QVQLVESGGGLVQAGGSLRLSCAASGIIFRRYAMGWYRQAPGKERELVAAITGSGGSTYYADSVKGRFTISRDNAKNTVYLQMNSLKPEDTAVYYCAAKGYPSRYSYGWYNYWGQGTQVTVSS,high polyreactivity
18,QVQLVESGGGLVQAGGSLRLSCAASGIIFRRYAMGWYRQAPGKERQLVARISFRGGSTYYADSVKGRFTISRDNAKNTVYLQMNSLKPEDTAVYYCNRDPRYSKEVDGDYWGQGTQVTVSS,high polyreactivity
19,QVQLVESGGGLVQAGGSLRLSCAASGIIFRRYAMGWYSQAPVKERELVAAITGSGGSPYYADSVKGRFTISRDNAKNTVYLQMNSLKPEDTAVYYCAAQSVLRFASSRYNSWGQGTQVTVSS,high polyreactivity
20,QVQLVESGGGLVQAGGSLRLSCAASGIIFRSNAMGWYRQAPVKETELVAAITGRGTRTYFADSVKGRFTISRDYAKYRVYFQMNSLKPEDTAVYYCNKGQTRGMGYWGQGTQVTVSS,high polyreactivity
21,QVQLVESGGGLVQAGGSLRLSCAASGIIFRSYTMGWYRQAPGKERELVASITRSGGITYYADSVKGRFTISRDNAKNTVYLQMNSLKPEDTAVYYCAARHRYYYQYRSDYWGQGTQVSVSS,high polyreactivity
